# B1: Tgase (SEQ ID NO: 6): variant Streptomyces mobaraensis transglutaminase (SEQ ID NO:2) with N-terminal Methionine, C-terminal peptide linker and hexa-His-Tag (protein)
# chain: MDPDDRVTPPAEPLDRMPDPYRPSYGRAETVVNNYIRKWQQVYSHRDGRKQQMTEEQREWLSYGCVGVTWVNSGQYPTNRLAFASFDEDRFKNELKNGRPRSGETRAEFEGRVAKESFDEEKGFQRAREVASVMNRALENAHDESAYLDNLKKELANGNDALRNEDARSPFYSALRNTPSFKERNGGNHDPSRMKAVIYSKHFWSGQDRSSSADKRKYGDPDAFRPAPGTGLVDMSRDRNIPRSPTSPGEGFVNFDYGWFGAQTEADADKTVWTHGNHYHAPNGSLGAMHVYESKFRNWSEGYSDFDRGAYVITFIPKSWNTAPDKVKQGWPLEHHHHHH
# Tested on: A. brasiliensis ATCC 16404
# Assay: MIC determination, A. brasiliensis
# Format: cell-based
# Conditions: RPMI 1640 pH 7.0, 25° C., up to 7 days, duplicate
# Experimental: A variant form of Streptomyces mobaraensis transglutaminase having the amino acid sequence depicted in SEQ ID NO:6 was prepared by literature methods with a hexa-his-tag to aid in purification (Javitt, et al. (2017) BMC Biotechnol. 17:23). The cells were grown in shake flasks, lysed by homogenization, and the Tgase variant (SEQ ID NO:6) was isolated from the cell debris by centrifugation. The resulting semi-purified enzyme (clarified lysate) were compared on an SDS-PAGE gel, by spectroscopy, and activity for concentration of active enzyme. The Tgase variant (SEQ ID NO:6) was further purified by affinity column on a Ni-IMAC resin prior to MIC assay. Tgase activity was measured in the examples herein using a colorimetric hydroxamate activity assay (Folk and Cole (1965) J Biol Chemistry 240(7):2951-2960). The enzyme was diluted to a working stock concentration of 2 mg/mL in CAMHB or RPMI media (bacterial or fungal media). This was then 2-fold serial diluted ten times in the appropriate media in a 96-well master plate to generate 2× starting concentrations for MIC testing. […]
# C. albicans MIC 96-well plate was incubated for 37° C. for 24 to 48 hours. […] After incubation, all 96-well plates were examined visually and on a spectrophotometer at absorbance OD650. […]
molecule,measurement,value
B1,MIC,62.5 µg/mL

# From patent publication US20230329245A1, “COMPOSITIONS AND METHODS OF USE THEREOF” (Curie Co. Inc., priority 2020, published 2023)
